Measured values taken from the Immune Epitope Database (IEDB).

How the values were obtained:
Assay in all cases: IEDB peptide-MHC binding, purified MHC/competitive/radioactivity; filed as Kd, often an IC50 or EC50 that approximates it; ≥ and ≤ were set here for values at or beyond the usual limits of such assays
HLA-A*68:01 = target: HLA-A*68:01
HLA-A*11:01 = target: HLA-A*11:01
HLA-A*03:01 = target: HLA-A*03:01
HLA-A*33:01 = target: HLA-A*33:01
HLA-A*31:01 = target: HLA-A*31:01
[1] = source organism: Vaccinia virus WR
[2] = source organism: Dengue virus 3 Martinique/1243/1999
[3] = source organism: Mammarenavirus machupoense
[4] = source organism: SARS coronavirus Tor2
[5] = source organism: Mopeia Lassa virus reassortant 29
[6] = source organism: Lymphocytic choriomeningitis virus (strain Armstrong)
[7] = source organism: Dengue virus 1 Brazil/97-11/1997
[8] = source organism: Mammarenavirus juninense
[9] = source organism: Dengue virus 2 Jamaica/1409/1983
[10] = source organism: Dengue virus 4 Philippines/H241/1956

## KFLEFSNRVY
HLA-A*68:01; [1]
  Kd: ≥ 68800 nM
HLA-A*11:01; [1]
  Kd: 10100 nM
HLA-A*03:01; [1]
  Kd: ≥ 39800 nM
HLA-A*33:01; [1]
  Kd: ≥ 70000 nM
HLA-A*31:01; [1]
  Kd: 24.5 nM

## KPKPAVRFAI
HLA-A*31:01; [1]
  Kd: ≥ 70000 nM

## KQYDSTDFK
HLA-A*68:01; [1]
  Kd: 1860 nM
HLA-A*11:01; [1]
  Kd: 33.5 nM
HLA-A*03:01; [1]
  Kd: 61.8 nM
HLA-A*33:01; [1]
  Kd: ≥ 25500 nM
HLA-A*31:01; [1]
  Kd: 70.9 nM

## KSINKVYGRY
HLA-A*68:01; [1]
  Kd: ≥ 33500 nM
HLA-A*11:01; [1]
  Kd: 1190 nM
HLA-A*03:01; [1]
  Kd: 2610 nM
HLA-A*33:01; [1]
  Kd: ≥ 70000 nM
HLA-A*31:01; [1]
  Kd: 64.3 nM

## KSISSMTIR
HLA-A*68:01; [1]
  Kd: 832 nM
HLA-A*11:01; [1]
  Kd: 281 nM
HLA-A*03:01; [1]
  Kd: 1280 nM
HLA-A*33:01; [1]
  Kd: 7710 nM
HLA-A*31:01; [1]
  Kd: 3.64 nM

## KSPLPSLEY
HLA-A*68:01; [1]
  Kd: ≥ 77700 nM
HLA-A*11:01; [1]
  Kd: 228 nM
HLA-A*03:01; [1]
  Kd: 278 nM
HLA-A*33:01; [1]
  Kd: ≥ 77700 nM
HLA-A*31:01; [1]
  Kd: 7390 nM

## KSVTKSSSWK
HLA-A*68:01; [1]
  Kd: 79 nM
HLA-A*11:01; [1]
  Kd: 13.8 nM
HLA-A*03:01; [1]
  Kd: 10 nM
HLA-A*33:01; [1]
  Kd: ≥ 55700 nM
HLA-A*31:01; [1]
  Kd: 376 nM

## KTNDINVRRR
HLA-A*68:01; [1]
  Kd: 848 nM
HLA-A*11:01; [1]
  Kd: 1460 nM
HLA-A*03:01; [1]
  Kd: 64.1 nM
HLA-A*33:01; [1]
  Kd: 5470 nM
HLA-A*31:01; [1]
  Kd: 17.9 nM

## KVLRENTSPK
HLA-A*03:01; source organism: Homo sapiens
  Kd: 28.9 nM

## LLIWAYLSKK
HLA-A*68:01; [1]
  Kd: 363 nM
HLA-A*11:01; [1]
  Kd: 124 nM
HLA-A*03:01; [1]
  Kd: 42.1 nM
HLA-A*33:01; [1]
  Kd: 2340 nM
HLA-A*31:01; [1]
  Kd: 1980 nM

## LLNGQGPMK
HLA-A*03:01; [2]
  Kd: 16.2 nM

## LNNSFYYMK
HLA-A*68:01; [3]
  Kd: 67.7 nM
HLA-A*11:01; [3]
  Kd: 619 nM
HLA-A*03:01; [3]
  Kd: 7240 nM
HLA-A*33:01; [3]
  Kd: ≥ 77700 nM
HLA-A*31:01; [3]
  Kd: 26.4 nM

## LQFAYSNRNR
HLA-A*68:01; [4]
  Kd: 1050 nM
HLA-A*11:01; [4]
  Kd: 1730 nM
HLA-A*03:01; [4]
  Kd: 890 nM
HLA-A*33:01; [4]
  Kd: 1270 nM
HLA-A*31:01; [4]
  Kd: 5.59 nM

## LSARNKLFKR
HLA-A*68:01; [1]
  Kd: 124 nM
HLA-A*11:01; [1]
  Kd: 2680 nM
HLA-A*03:01; [1]
  Kd: ≥ 70100 nM
HLA-A*33:01; [1]
  Kd: 1710 nM
HLA-A*31:01; [1]
  Kd: 16.9 nM

## LSKRERQLAK
HLA-A*68:01; [1]
  Kd: 5940 nM
HLA-A*11:01; [1]
  Kd: 1120 nM
HLA-A*03:01; [1]
  Kd: 1360 nM
HLA-A*33:01; [1]
  Kd: ≥ 57900 nM
HLA-A*31:01; [1]
  Kd: 1600 nM

## LSLSNLDFR
HLA-A*68:01; [1]
  Kd: 300 nM
HLA-A*11:01; [1]
  Kd: 349 nM
HLA-A*03:01; [1]
  Kd: ≥ 78000 nM
HLA-A*33:01; [1]
  Kd: 675 nM
HLA-A*31:01; [1]
  Kd: 21.7 nM

## LSPAHLINK
HLA-A*68:01; [1]
  Kd: 16300 nM
HLA-A*11:01; [1]
  Kd: 39.4 nM
HLA-A*03:01; [1]
  Kd: 208 nM
HLA-A*33:01; [1]
  Kd: ≥ 35800 nM
HLA-A*31:01; [1]
  Kd: 18600 nM

## LTKFVAAALH
HLA-A*68:01; [5]
  Kd: 164 nM
HLA-A*11:01; [5]
  Kd: 5660 nM
HLA-A*03:01; [5]
  Kd: 16000 nM
HLA-A*33:01; [5]
  Kd: 5610 nM
HLA-A*31:01; [5]
  Kd: 694 nM

## LTKFVSAALH
HLA-A*68:01; [6]
  Kd: 221 nM
HLA-A*33:01; [6]
  Kd: 3760 nM
HLA-A*31:01; [6]
  Kd: 864 nM

## LVMAFIAFLR
HLA-A*68:01; [7]
  Kd: 31.8 nM
HLA-A*11:01; [7]
  Kd: 1380 nM
HLA-A*33:01; [7]
  Kd: 106 nM
HLA-A*31:01; [7]
  Kd: 73.5 nM

## LVVISVIFY
HLA-A*68:01; [1]
  Kd: 5480 nM
HLA-A*11:01; [1]
  Kd: ≥ 36700 nM
HLA-A*03:01; [1]
  Kd: ≥ 24400 nM
HLA-A*33:01; [1]
  Kd: ≥ 66100 nM
HLA-A*31:01; [1]
  Kd: 10700 nM

## LWRTLGRNKR
HLA-A*31:01; source organism: Dengue virus 3 Sri Lanka/1266/2000
  Kd: 712 nM

## MATYGWNLVK
HLA-A*11:01; [7]
  Kd: 370 nM

## MFEQYFIYTY
HLA-A*68:01; [1]
  Kd: 8110 nM
HLA-A*11:01; [1]
  Kd: 2140 nM
HLA-A*03:01; [1]
  Kd: 18.6 nM
HLA-A*33:01; [1]
  Kd: 5690 nM
HLA-A*31:01; [1]
  Kd: 4510 nM

## MFLTSVINR
HLA-A*68:01; [1]
  Kd: 18.8 nM
HLA-A*11:01; [1]
  Kd: 283 nM
HLA-A*03:01; [1]
  Kd: 355 nM
HLA-A*33:01; [1]
  Kd: 0.841 nM
HLA-A*31:01; [1]
  Kd: 1.16 nM

## MLNIMNRRK
HLA-A*03:01; [7]
  Kd: 21 nM

## MLVTPSMTMR
HLA-A*68:01; [2]
  Kd: 54.7 nM
HLA-A*31:01; [2]
  Kd: 111 nM

## MSTYSDICSK
HLA-A*68:01; [1]
  Kd: ≥ 70200 nM
HLA-A*11:01; [1]
  Kd: ≥ 69800 nM
HLA-A*03:01; [1]
  Kd: ≥ 70100 nM
HLA-A*33:01; [1]
  Kd: ≥ 70000 nM
HLA-A*31:01; [1]
  Kd: ≥ 70000 nM

## MTSWLDFSH
HLA-A*68:01; [8]
  Kd: 3.36 nM
HLA-A*11:01; [8]
  Kd: 116 nM
HLA-A*03:01; [8]
  Kd: 548 nM
HLA-A*33:01; [8]
  Kd: 13600 nM
HLA-A*31:01; [8]
  Kd: 176 nM

## MVMCGGSLY
HLA-A*68:01; [4]
  Kd: 22.6 nM
HLA-A*11:01; [4]
  Kd: 73.9 nM
HLA-A*03:01; [4]
  Kd: 41.9 nM
HLA-A*33:01; [4]
  Kd: 4620 nM
HLA-A*31:01; [4]
  Kd: 70.4 nM

## MYFHRRDLR
HLA-A*68:01; [9]
  Kd: 346 nM
HLA-A*33:01; [9]
  Kd: 5.64 nM
HLA-A*31:01; [9]
  Kd: 0.137 nM

## NLKAMLYIIR
HLA-A*68:01; [1]
  Kd: 209 nM
HLA-A*11:01; [1]
  Kd: 10900 nM
HLA-A*03:01; [1]
  Kd: 8530 nM
HLA-A*33:01; [1]
  Kd: 133 nM
HLA-A*31:01; [1]
  Kd: 4840 nM

## NSQIFNIISY
HLA-A*68:01; [1]
  Kd: 441 nM
HLA-A*11:01; [1]
  Kd: 5090 nM
HLA-A*03:01; [1]
  Kd: 1080 nM
HLA-A*33:01; [1]
  Kd: 10600 nM
HLA-A*31:01; [1]
  Kd: 1320 nM

## NTIDKSSPLY
HLA-A*68:01; [1]
  Kd: 85.4 nM
HLA-A*11:01; [1]
  Kd: 1660 nM
HLA-A*03:01; [1]
  Kd: 7970 nM
HLA-A*33:01; [1]
  Kd: ≥ 70000 nM
HLA-A*31:01; [1]
  Kd: ≥ 70000 nM

## NTTSKMLLNR
HLA-A*68:01; [10]
  Kd: 179 nM
HLA-A*33:01; [10]
  Kd: 100 nM

## QAAILMGLDK
HLA-A*68:01; [7]
  Kd: 377 nM

## RLKMDKLTLK
HLA-A*03:01; [7]
  Kd: 13 nM

## RQMEGEGIFK
HLA-A*11:01; [9]
  Kd: 127 nM
HLA-A*03:01; [9]
  Kd: 21.5 nM

## RTLAKEGIKR
HLA-A*31:01; [9]
  Kd: 14.3 nM

## SAKLRWFVER
HLA-A*33:01; [9]
  Kd: 46.5 nM
HLA-A*31:01; [9]
  Kd: 26.3 nM

## TANPVVTKK
HLA-A*11:01; [2]
  Kd: 245 nM

## TLGWLLQTPK
HLA-A*03:01; source organism: Homo sapiens
  Kd: 7.5 nM

## TTSKMLLNR
HLA-A*68:01; [10]
  Kd: 59.8 nM
HLA-A*11:01; [10]
  Kd: 178 nM

## TVCYVLTGR
HLA-A*68:01; [9]
  Kd: 15.2 nM
HLA-A*33:01; [9]
  Kd: 1.6 nM
HLA-A*31:01; [9]
  Kd: 10.3 nM

## TYLALMATFK
HLA-A*33:01; [7]
  Kd: 11 nM

## VTAASAAQR
HLA-A*68:01; [2]
  Kd: 43.2 nM

## VTHSSAAQR
HLA-A*68:01; [9]
  Kd: 42 nM
HLA-A*31:01; [9]
  Kd: 25.8 nM

## WYLWEVKKQR
HLA-A*33:01; [9]
  Kd: 39.7 nM

## YTIGTTHFQR
HLA-A*68:01; [9]
  Kd: 17.3 nM
HLA-A*33:01; [9]
  Kd: 6.12 nM
HLA-A*31:01; [9]
  Kd: 44.3 nM

## YYCGGLKNVR
HLA-A*33:01; [9]
  Kd: 3.1 nM
